Assay results reported in patent publication US20190374608A1 (BOARD OF TRUSTEES OF THE UNIVERSITY OF ILLINOIS, published 2019).
Where no end group is shown, it is not given here. (CH2CH2O)27 = 27 units of polyethylene glycol linked to the C-terminal Asp, ending in NH2

T1: human CCR3 in membrane preparations, 13C-reductively methylated (CCR3-K-di13CH3) (human, UniProt P51677 1-355, lysines reductively methylated with 13C (K-di13CH3))
T1 construct: also called CCR3 membrane preps; C-C chemokine receptor 3
T1 sequence (looked up): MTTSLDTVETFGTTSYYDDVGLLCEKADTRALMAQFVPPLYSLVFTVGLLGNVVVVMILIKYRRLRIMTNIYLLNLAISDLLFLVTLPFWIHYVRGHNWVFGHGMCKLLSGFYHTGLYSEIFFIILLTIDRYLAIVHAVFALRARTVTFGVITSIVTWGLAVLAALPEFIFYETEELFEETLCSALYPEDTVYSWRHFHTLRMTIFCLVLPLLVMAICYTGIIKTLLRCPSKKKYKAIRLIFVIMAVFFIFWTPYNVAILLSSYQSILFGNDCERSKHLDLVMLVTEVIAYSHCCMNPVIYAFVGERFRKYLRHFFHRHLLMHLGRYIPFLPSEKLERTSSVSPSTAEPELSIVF

T2: human CCR3 on cells (AML14.3D10-CCR3 cells, blood eosinophils, 4DE4-CCR3 cells) (human, UniProt P51677 1-355)
T2 sequence (looked up): T1 sequence (looked up)

B1: recombinant human CCL11 (ligand)
chain: not shown
notes: also called eotaxin; eotaxin-1

Tests used:
[1] = biological target: T1, human CCR3 in membrane preparations, …; experiment: NMR, 13C HSQC of 13C-reductively methylated CCR3 membrane preps (0.25 mg/ml) with 1 µM CCL11
Procedure: FIG. 6A to FIG. 6E show NMR evaluation of the binding of R3-2-1 and CCL11/eotaxin-1 to CCR3 membrane preparations. ¹³C HSQC spectra of ¹³C-reductively methylated CCR3 membrane preps (0.25 mg/ml) were recorded with 1 μM CCL11 and 10 μM R321. FIG. 6A, reductively methylated CCR3 (CCR3-K-di¹³CH3) (gray) and reductively methylated CCR3 with CCL11 (black); FIG. 6B, reductively methylated CCR3 (CCR3-K-di¹³CH3) (gray) and reductively methylated CCR3 with R321 (black); FIG. 6C, reductively methylated CCR3 (CCR3-K-di¹³CH3) (gray) and reductively methylated CCR3 with CCL11 and R321 (black); FIG. 6D, reductively methylated CCR3 with CCL11 (gray) and reductively methylated CCR3 with CCL11 and R321 (black); and FIG. 6E, reductively methylated CCR3 with R321 (gray) and reductively methylated CCR3 with CCL11 and R321 (black) show chemical shift changes indicative of binding. Black arrows indicate the differences in chemical shifts.

[2] = biological target: T2, human CCR3 on cells (AML14.3D10-CCR3 …); experiment: cell-based or functional assay

| Binder | binding result [1] | IC50 of inhibition of CCL11/Eotaxin-1 (12 nM)-induced chemotaxis, AML14.3D10-CCR3 cells [2] | IC50 of inhibition of CCL11/Eotaxin-1 (12 nM)-induced chemotaxis, blood eosinophils [2] | IC50 of inhibition of CCL24/Eotaxin-2 (20 nM)-induced chemotaxis, AML14.3D10-CCR3 cells [2] | IC50 of inhibition of CCL24/Eotaxin-2 (20 nM)-induced chemotaxis, blood eosinophils [2] | IC50 of inhibition of CCL26/Eotaxin-3 (100 nM)-induced chemotaxis, AML14.3D10-CCR3 cells [2] | IC50 of inhibition of CCL26/Eotaxin-3 (100 nM)-induced chemotaxis, blood eosinophils [2] |
| --- | --- | --- | --- | --- | --- | --- | --- |
| B1 | binds | – | – | – | – | – | – |
| LLFLVTLPFWIHYVRGHNWVFGHDDD-{(CH2CH2O)27-NH2} [R3-2-1 peptide (CCR3 second transmembrane helix peptide analog, PEG27, C-terminal amide)] | – | 210 nM | 110 nM | 140 nM | 80 nM | 100 nM | 160 nM |
